Assay [1] concerns the target T1, cellular hUPF1 (human, UniProt Q92900-2 1-1118, limits assumed).
T1 construct: Endogenous protein detected by western blotting
T1 sequence (looked up): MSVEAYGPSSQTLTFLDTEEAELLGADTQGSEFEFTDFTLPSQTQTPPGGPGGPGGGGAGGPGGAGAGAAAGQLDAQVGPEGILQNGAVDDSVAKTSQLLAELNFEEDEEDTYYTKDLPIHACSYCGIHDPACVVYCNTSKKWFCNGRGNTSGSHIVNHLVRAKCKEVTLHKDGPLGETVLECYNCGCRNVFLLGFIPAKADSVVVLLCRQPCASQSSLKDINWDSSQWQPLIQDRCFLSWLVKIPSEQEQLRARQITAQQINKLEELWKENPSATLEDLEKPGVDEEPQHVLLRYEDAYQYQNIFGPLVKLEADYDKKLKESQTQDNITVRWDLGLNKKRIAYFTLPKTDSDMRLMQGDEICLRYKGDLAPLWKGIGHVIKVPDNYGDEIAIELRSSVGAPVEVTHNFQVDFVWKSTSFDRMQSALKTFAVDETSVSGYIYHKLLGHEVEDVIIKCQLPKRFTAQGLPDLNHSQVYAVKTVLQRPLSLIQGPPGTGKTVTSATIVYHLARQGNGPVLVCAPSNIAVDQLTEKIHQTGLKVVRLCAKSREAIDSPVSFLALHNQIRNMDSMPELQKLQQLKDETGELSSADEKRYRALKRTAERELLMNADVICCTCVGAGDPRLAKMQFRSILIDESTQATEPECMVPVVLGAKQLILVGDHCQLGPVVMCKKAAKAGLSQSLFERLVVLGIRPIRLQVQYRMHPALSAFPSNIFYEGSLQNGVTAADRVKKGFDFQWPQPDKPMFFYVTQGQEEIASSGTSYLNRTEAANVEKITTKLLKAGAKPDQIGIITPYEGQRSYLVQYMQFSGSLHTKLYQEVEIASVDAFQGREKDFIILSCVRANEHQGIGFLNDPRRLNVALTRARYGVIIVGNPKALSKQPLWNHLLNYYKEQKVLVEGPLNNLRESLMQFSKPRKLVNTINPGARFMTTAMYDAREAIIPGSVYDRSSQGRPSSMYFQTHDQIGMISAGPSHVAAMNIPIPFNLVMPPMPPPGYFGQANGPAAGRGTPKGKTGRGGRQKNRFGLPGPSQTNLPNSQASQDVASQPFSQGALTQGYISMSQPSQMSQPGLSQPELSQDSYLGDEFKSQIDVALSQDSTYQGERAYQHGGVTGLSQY
Nature of the assay: anti-GFP co-IP from HEK293T lysates with RNase A, western blotting. Background: In western blotting, separated proteins are transferred to a membrane and probed.

For the next assay, the target named is T2, mRFP-‘RBD’5 (human, UniProt O95793-2 407-476).
T2 construct: domain: ‘RBD’5; also called monomeric red fluorescence protein-‘RBD’5; product of pmRFP-hSTAU1-‘RBD’5; not shown: N-terminal mRFP (monomeric DsRed derived from pDsRed-Express-C1) with vector linker
T2 sequence (looked up): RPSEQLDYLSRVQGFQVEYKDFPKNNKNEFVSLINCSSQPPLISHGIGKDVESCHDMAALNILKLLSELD
Described as above.

A further assay addresses T3, calnexin (UniProt P27824 21-592).
T3 construct: Specificity control
T3 sequence (looked up): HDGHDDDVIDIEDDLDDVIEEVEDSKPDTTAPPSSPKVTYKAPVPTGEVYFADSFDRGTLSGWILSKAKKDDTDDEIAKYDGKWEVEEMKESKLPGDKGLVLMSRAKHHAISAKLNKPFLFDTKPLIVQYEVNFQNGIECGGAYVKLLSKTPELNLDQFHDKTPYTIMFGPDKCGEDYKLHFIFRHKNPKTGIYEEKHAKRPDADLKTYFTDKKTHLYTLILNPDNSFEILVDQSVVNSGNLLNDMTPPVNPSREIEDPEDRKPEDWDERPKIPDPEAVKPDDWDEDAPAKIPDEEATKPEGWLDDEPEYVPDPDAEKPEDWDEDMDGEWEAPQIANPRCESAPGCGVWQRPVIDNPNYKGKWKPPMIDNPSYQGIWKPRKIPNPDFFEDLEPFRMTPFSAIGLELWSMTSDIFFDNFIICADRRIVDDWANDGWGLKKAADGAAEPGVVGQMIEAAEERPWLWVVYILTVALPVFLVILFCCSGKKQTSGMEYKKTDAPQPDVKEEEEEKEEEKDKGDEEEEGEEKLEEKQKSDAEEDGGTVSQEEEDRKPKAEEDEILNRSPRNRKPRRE
Nature of the assay: co-immunoprecipitation with anti-GFP from HEK293T lysates in the presence of RNase A; western blot alpha-Calnexin (control for IP specificity). The source says: Western blotting (WB) using the specified antibody, where calnexinservesto control for IP specificity. Results are representative of three independently performed experiments.
Human embryonic kidney (HEK)293T cells were transiently transfected with a mixture of two plasmids: (i) pEGFP-‘RBD’5, which produces monomeric enhanced green fluorescence protein (EGFP)-‘RBD’5 and either pmRFP-SSM-‘RBD’5 or pmRFP-‘RBD’5, which produce monomeric red fluorescence protein (mRFP)—SSM-‘RBD’5 or mRFP-‘RBD’5, respectively; or (ii) pEGFP-SSM-‘RBD’5 and either pmRFP-SSM-‘RBD’5 or pmRFP-‘RBD’5 (FIG. 1D, upper). […] Cell lysates were immunoprecipitated in the presence of RNase A using anti-GFP or, to control for nonspecific immunoprecipitation (IP), mouse(m)IgG.

A further assay concerns the target T4, mRFP-SSM-‘RBD’5 (human, UniProt D2GVP7 455-564 (Ailuropoda melanoleuca entry), N-terminal mRFP fusion is not carried in the letters.).
T4 construct: Expressed in HEK293T cells; also called monomeric red fluorescence protein-SSM-‘RBD’5; product of pmRFP-hSTAU1-SSM-‘RBD’5; not shown: N-terminal mRFP (monomeric DsRed from a pDsRed-Express-C1 derivative) and the vector-encoded linker
T4 sequence: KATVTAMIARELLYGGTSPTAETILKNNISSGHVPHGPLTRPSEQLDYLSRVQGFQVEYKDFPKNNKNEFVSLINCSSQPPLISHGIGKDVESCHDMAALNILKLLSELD
Nature of the assay: anti-GFP co-IP from HEK293T lysates with RNase A, western blotting.

In assay [2] the target is T1, cellular hUPF1. Nature of the assay: co-immunoprecipitation with anti-GFP from HEK293T lysates in the presence of RNase A; western blot alpha-UPF1.

B1: EGFP-‘RBD’5 (other, human, UniProt O95793-2 407-476, looked up)
chain: T2 sequence (looked up)
notes: domain: ‘RBD’5; also called monomeric enhanced green fluorescence protein-‘RBD’5; product of pEGFP-hSTAU1-‘RBD’5; not shown: N-terminal monomeric EGFP from pEGFP-C3 with vector linker
As for B1, the binding result with cellular hUPF1 [1], in the assay with mRFP-‘RBD’5 and with calnexin was “no binding” each time.

B2: EGFP-SSM-‘RBD’5 (other, human, UniProt O95793-2 367-476, looked up)
chain: T4 sequence
notes: range 367-476; Expressed in HEK293T cells; tested in lysates with RNase A; also called monomeric enhanced green fluorescence protein-SSM-‘RBD’5; product of pEGFP-hSTAU1-SSM-‘RBD’5; not shown: N-terminal monomeric EGFP from pEGFP-C3 (BD Biosciences Clontech) with vector linker
With B2, the figures for the binding result with mRFP-SSM-‘RBD’5, in the assay with cellular hUPF1 [2] and with calnexin were “binds”, “no binding” and “no binding”, respectively.
